# B1: HDV Ribozyme (parent)
# chain: GGCCGGCAUGGUCCCAGCCUCCUCGCUGGCGCCGGCUGGGCAACAUUCCGAGGGGACCGUCCCCUCGGUAAUGGCGAAUGGGACCCA
# Variants of: B1
# Experiment: self-cleavage, relative activity (ratio to wild type); higher = more cleavage; co-transcriptional
row,Variant,self-cleavage
1,GGCCGGCAUGGUCCCAGCCUCCUCGCUGGUGCCGGCUGGGCGACAUUCCGAGGGGACCGUCCCCUCGGUAAUGGCGAAUGGGACCCA [C30U A42G],0.156
2,GGCCGGCAUGGUCCCAGCCUCCUCGCUGGCGCCGGCUGGGCAACAUUCCGAGGGGACCGACCCCUCGGUAAUGGCGAAUGGAACCCA [U60A G82A],0.373
3,GGCCGGCAUAGUCCCAGCCCCCUCGCUGGCGCCGGCUGGGCAACAUUCCGAGGGGACCGUCCCCUCGGUAAUGGCGAAUGGGACCCA [G10A U20C],0.0234
4,GGCCGGCAUGGUCCCAGCCUCCUCGCUGGCGCCGGCUGGGCAACAUUCCGAGGGGACCGUCCGCUCGGUAAUGGCGAAUGGGACACA [C63G C85A],0.95
5,GGCCAGCAUGGUCCCAGCCUCCUCGCUGGCGCCGGCUGGGCAACAUUCCGAGGGGACCGUCCCCUCGCUAAUGGCGAAUGGGACCCA [G5A G68C],0.17
6,GGCGGGCAUGGUCCCAGCCUCCUCGCUGGCGCCGGCUGGGCAACAUUCCGAGGGGACCGUCCCCUCGGUAAUGGCGAAUGGCACCCA [C4G G82C],0
7,GGCCGGCAUGGUCCCAGCCUCCUCGCUGGCGCCGGCUGGUCUACAUUCCGAGGGGACCGUCCCCUCGGUAAUGGCGAAUGGGACCCA [G40U A42U],0.496
8,GGCCGGCAUGGUCCCAGCGUCCUCGCUGGCGCCGGCUGGGCAAUAUUCCGAGGGGACCGUCCCCUCGGUAAUGGCGAAUGGGACCCA [C19G C44U],0.0563
9,GGCCGGCAUGGUCACAGCCUCCUCGCUGACGCCGGCUGGGCAACAUUCCGAGGGGACCGUCCCCUCGGUAAUGGCGAAUGGGACCCA [C14A G29A],0.115
10,GGCCGGCAUGGUCCCAGCCCCCUCGCUGGCGCCGGCUGGGGAACAUUCCGAGGGGACCGUCCCCUCGGUAAUGGCGAAUGGGACCCA [U20C C41G],0.172
11,GGCCGGCAUGGUCCCAGCCUCCUCGCUGGCGACGGCUGGGCAACAUUCCGAGGGGACCGUCCCCUUGGUAAUGGCGAAUGGGACCCA [C32A C66U],0.315
12,GGCCGGCAUGGUCCCAGCCUCCUCGCUCGCGCCGGCUGGGUAACAUUCCGAGGGGACCGUCCCCUCGGUAAUGGCGAAUGGGACCCA [G28C C41U],0.0437
13,GGCCGGCAUGGUCGCAGCCUCCUCGCUGCCGCCGGCUGGGCAACAUUCCGAGGGGACCGUCCCCUCGGUAAUGGCGAAUGGGACCCA [C14G G29C],0.0665
14,GGCCGGCAUGGUCCCAGCCUCCUCGCUGGCGCCGGCAGGGCAACAUUCCGAGGGAACCGUCCCCUCGGUAAUGGCGAAUGGGACCCA [U37A G55A],0.283
15,GGCCGGCAUGGUCCCAGCCUCCUCGCCGGCGCCGGCUGGGCAACAUUCCGAGGGGACCGUCCCCUCGGGAAUGGCGAAUGGGACCCA [U27C U69G],0.712
16,GGCCGGCAUGGUCCCAGCCUCCUCGCUGGCGCCGGCUGGGCGACAUUCCGAGGGGACCGUCCCCUGGGUAAUGGCGAAUGGGACCCA [A42G C66G],0.538
17,GGCCGGCAUGGUCCCAGCCACCACGCUGGCGCCGGCUGGGCAACAUUCCGAGGGGACCGUCCCCUCGGUAAUGGCGAAUGGGACCCA [U20A U23A],0.277
18,GGCCGGCAUGGUCCUAGCCUCCUCGCUGGCGCCGGCUGGGCAACAUUCCGAGGGGACCGUCCCCUCGGGAAUGGCGAAUGGGACCCA [C15U U69G],0.858
19,GGCCGGCAUGGUCCCAGCCUCCUCGCUGGCGCCGGCUGGGCCACAUUCCGAGGGGACCGUCCCCUCUGUAAUGGCGAAUGGGACCCA [A42C G67U],0.261
20,GGCCUGCAUUGUCCCAGCCUCCUCGCUGGCGCCGGCUGGGCAACAUUCCGAGGGGACCGUCCCCUCGGUAAUGGCGAAUGGGACCCA [G5U G10U],0.181
21,GGCCGGCAUGGUCCCAGGCUCCUCGCUGGCGCCGGCUGGGCAACAUUCCGAGGGGCCCGUCCCCUCGGUAAUGGCGAAUGGGACCCA [C18G A56C],0.0755
22,GGCCGGCAUGGUCCCAGCCUCCUCGCUGGCGCCGGCUGGGCAACAUUCCGAGGGGACCGUCCCCUCGGUCAUGGAGAAUGGGACCCA [A70C C75A],0.123

row,Variant,self-cleavage
1,GGCCGGCAUGGUCCAAGCCUCCUCGCUGGCGCAGGCUGGGCAACAUUCCGAGGGGACCGUCCCCUCGGUAAUGGCGAAUGGGACCCA [C15A C33A],0.256
2,GGCCGGCAUGGUCCCAGCCUCCUCGCUGGCGCCGGCUUGGCAACAUUCCGAGGGGACCAUCCCCUCGGUAAUGGCGAAUGGGACCCA [G38U G59A],0.181
3,GGCCGGCACGGUCCCAGCCUCCUCGCUGGCGCCGGCUGGGCAACAGUCCGAGGGGACCGUCCCCUCGGUAAUGGCGAAUGGGACCCA [U9C U46G],1.19
4,GGCCGGCAUGGUCCCAGCCUCCUCGCUGGCGCAGGCUGGGCAACAUUCGGAGGGGACCGUCCCCUCGGUAAUGGCGAAUGGGACCCA [C33A C49G],0.166
5,GGCCGGCAAGGUCCCAGCCUCCUCGCUGGCGCCGGCUGGGCAACAUGCCGAGGGGACCGUCCCCUCGGUAAUGGCGAAUGGGACCCA [U9A U47G],0.772
6,GGCCGGCAUCGUCCCAGCCCCCUCGCUGGCGCCGGCUGGGCAACAUUCCGAGGGGACCGUCCCCUCGGUAAUGGCGAAUGGGACCCA [G10C U20C],0.0739
7,GGCCGGCAUGGUCCCAGCGUCCUCGCUGGCGCCGGCUGGGCAACAUUCCGAGGGGACCGGCCCCUCGGUAAUGGCGAAUGGGACCCA [C19G U60G],0.0405
8,GGCCGGCAUGGUCCCAGCCUCCUCGCUGGCGCCGACUGGGCAGCAUUCCGAGGGGACCGUCCCCUCGGUAAUGGCGAAUGGGACCCA [G35A A43G],0.185
9,GGCCGGCAUGGUCCCAGCCUCCUCGCUGACGCCGGCUGGGCAACAUUCCGAGGGGACCGUCCCCGCGGUAAUGGCGAAUGGGACCCA [G29A U65G],0.166
10,GGCCGGCAUGGUCCCAGCCUCCUCGCUGGCGCCGGCUGGGCAACAUGCCGAGGGGACCGUCCCCUCGGUCAUGGCGAAUGGGACCCA [U47G A70C],1.22
11,GGCCGGCAUGGUCCCAGCCUCCUCGCUGGCGCCGGCUGGGCAACAUUCCCAGGGGACCGUCCCCUCGGUAAUGGCGAAUGGGAGCCA [G50C C84G],0.542
12,GGCCGGCAUGAUCCCAGCCUCCUCGCUGGCGCCGGCUGGGCAACAUUCCGAGGGGACCGUCCCCUCGGUAAUGGCGAACGGGACCCA [G11A U79C],0.161
13,GGCCGGCAUGAUCCCAGCCUCCUCGCUGGCGUCGGCUGGGCAACAUUCCGAGGGGACCGUCCCCUCGGUAAUGGCGAAUGGGACCCA [G11A C32U],0.133
14,GGCCGGCAUGGUCCCAGCCUCCUCGCUGGCGCCGGCUGGGCAACAUUUCGAGGGGACCGUCCCCACGGUAAUGGCGAAUGGGACCCA [C48U U65A],0.876
15,GGCCGGCAUGGUCCGAGCCUGCUCGCUGGCGCCGGCUGGGCAACAUUCCGAGGGGACCGUCCCCUCGGUAAUGGCGAAUGGGACCCA [C15G C21G],0
16,GGCCGGCAUGGUCCCAGCCUGCUCGCUGGCGCCGGCUGGGCAACAUUCCGAGGGGACCGGCCCCUCGGUAAUGGCGAAUGGGACCCA [C21G U60G],0
17,GGCCGGCAUGGUCCCUGCCUCCUCGCUGGCGCCGGCUGGGCAACAUUCCGAGGGGACCGUCCCCUCGGUAAUGGGGAAUGGGACCCA [A16U C75G],0.119
18,GGCCGGCAUGGUCCCAACCUCCUCGCUGGUGCCGGCUGGGCAACAUUCCGAGGGGACCGUCCCCUCGGUAAUGGCGAAUGGGACCCA [G17A C30U],0.986
19,GGCCGGCAUGGUCCCAGCCUCCUCGCUGGCGCCGGCUGGGCAACAUUCCGUGGGAACCGUCCCCUCGGUAAUGGCGAAUGGGACCCA [A51U G55A],1.17
20,GGCCGGCAUGGUCCCAGCCUCCUCGCUGCCGCCGGCUGGGCAACAUUCCGAGGGGACCGUCCCCUCGGUAAUGGCUAAUGGGACCCA [G29C G76U],0.119
21,GGCCGGCAUGGUCCCAGCCUGCUCGUUGGCGCCGGCUGGGCAACAUUCCGAGGGGACCGUCCCCUCGGUAAUGGCGAAUGGGACCCA [C21G C26U],0.0615
22,GGCCGGCAUGGUCCCAGCCUCCUCGCUGGCUCCGGCUGGUCAACAUUCCGAGGGGACCGUCCCCUCGGUAAUGGCGAAUGGGACCCA [G31U G40U],0.166

row,Variant,self-cleavage
1,GGCCGGCAUGGUCCCAGCCUCCUCGCUGGCGCCGGCUGGGCAACAUUCCCAGGGGACCGACCCCUCGGUAAUGGCGAAUGGGACCCA [G50C U60A],1.03
2,GGCCGGAAUGGUCCCAGCCUCCUCGCUGGCGCCGGCUGGGCAACAUUCCGAGGGGACCGUGCCCUCGGUAAUGGCGAAUGGGACCCA [C7A C61G],0.806
3,GGCCGGCAUGGUCCCAGCCUCCUCACUGGCGCCGGCUGGGCAACAUUCCGAGGGGACCGUCGCCUCGGUAAUGGCGAAUGGGACCCA [G25A C62G],0.151
4,GGCCGGCAUGGUCCCAGCCUCCUCGUUGGCGCCGGCUGGGCAACAUUCCGAGGGGACCGUCCCCUCGGUAAUGGCGAAUGGCACCCA [C26U G82C],0.431
5,GGCCGGCAUGGUCCCAGCCUGCUCGCUGGCGCCGGCUGGGCAACAUUCCGAGGGGACCGUCCCCUCGGUAAUGGCGAAUGGGACCCC [C21G A87C],0.0594
6,GGCCGGCAUGGUCCCAGCCUCCUCGCUUGCGCCGGCUGGGCAACAUCCCGAGGGGACCGUCCCCUCGGUAAUGGCGAAUGGGACCCA [G28U U47C],0.297
7,GGCCGGCAUGGUCGCAGCCUCCUCGCUGGCGCCGGCUGGGCAACAUUCCGAGGGGACGGUCCCCUCGGUAAUGGCGAAUGGGACCCA [C14G C58G],0.712
8,GGCCGGCAUGGUCCCAGCCUCCUCGCUGACGCCGGCUGGGCAACAUUCCGAGGGGACCGUUCCCUCGGUAAUGGCGAAUGGGACCCA [G29A C61U],0.274
9,GGCCGGCAUGGUCCCAGCCUCCUCGCUGGCGCCGGCUGGGCAACAUUCCGAGGGGACCGUCCCCUCGGUGAUGGCGAAUGGUACCCA [A70G G82U],0.415
10,GGCCUGCAUGGUCCCAGCCUCCUCGCUGGCGCCGGCUGGGCAACAUUCCGAGGGGACCGUCCCCUCGGUAAGGGCGAAUGGGACCCA [G5U U72G],0.277
11,GGCCGGCAUGGUCCCAGCCUCCUGGCUGGCGCCGGCUGGGCAACAUUCCGAGGGGACCGUCCCCUCGGUAAUGGCGAGUGGGACCCA [C24G A78G],0.173
12,GGCGGGCAUGGUCCCAGCCUCCUCGCUGGCGCCUGCUGGGCAACAUUCCGAGGGGACCGUCCCCUCGGUAAUGGCGAAUGGGACCCA [C4G G34U],0.864
13,GGCCGGCAGGGUGCCAGCCUCCUCGCUGGCGCCGGCUGGGCAACAUUCCGAGGGGACCGUCCCCUCGGUAAUGGCGAAUGGGACCCA [U9G C13G],0.111
14,GGCCGGCAUGGUCCCAGCCUCCUCGCUGGCGCCGGCUGGGCAACACUCCGAGGGGACCGUCCCCUCGGUAAUGGCGAAUGGGAUCCA [U46C C84U],0.485
15,GGCCGGCAUGGUCCCAGCCUCCUCGCUCGCGCCGGCUGGUCAACAUUCCGAGGGGACCGUCCCCUCGGUAAUGGCGAAUGGGACCCA [G28C G40U],0.032
16,GUCCGGCAUGGUCCCAGCCUCCUCGCUGGCGCCGGCUGGGCAACAUUACGAGGGGACCGUCCCCUCGGUAAUGGCGAAUGGGACCCA [G2U C48A],0.0378
17,GGCCGGCAUGGCCCCAGCCUCCUCGCUGGCGCCGGCUGGGCAACAUUCCGAGGGGACCGUCCCCUCGGUAAUGGCGAAUGGCACCCA [U12C G82C],0.0504
18,GGCCGGCAUGGUCCCAGGCUCCUCGCUGGCGCCGGCUGGGCAACAUUCCGAGGGGACCGUCCCCUCGGUAAUGGCGACUGGGACCCA [C18G A78C],0
19,GGCCGGCAUGGUCCCAGCCUCCUCGAUGGCGCCGGCUGGGCAACAUUCCGAGGUGACCGUCCCCUCGGUAAUGGCGAAUGGGACCCA [C26A G54U],1.03
20,GGCCGGCAUGGUCCCAGCCUCCUCGCUGGCGCCGGCUGGGCAACAUUCCGAGGGGACCGGCCCCUCGGUAAUGGCGAAUUGGACCCA [U60G G80U],0.277
